Here are results for three molecules from patent US20050142634A1, “Novel modulator of non-genomic activity of nuclear receptors (mnar) and uses thereof” (Wyeth, priority 2001, published 2005).

The chains are these.
B1: mutant 10: MNAR mutant aa 595-962 (protein, listed as Homo sapiens)
chain: PPPLACALQAFSLGQREDSLEVSSFCSEALVTCAALTHPRVPPLQPMGPTCPTPAPVPPPEAPSPFRAPPFHPPGPMPSVGSMPSAGPMPSAGPMPSAGPVPSARPGPPTTANHLGLSVPGLVSVPPRLLPGPENHRAGSNEDPILAPSGTPPPTIPPDETFGGRVPRPAFVHYDKEEASDVEISLESDSDDSVVIVPEGLPPLPPPPPSGATPPPIAPTGPPTASPPVPAKEEPEELPAAPGPLPPPPPPPPPVPGPVTLPPPQLVPEGTPGGGGPPALEEDLTVININSSDEEEEEEEEGEEEEEEEEEEEEDFEEEEEDEEEYFEEEEEEEEEFEEEFEEEEGELEEEEEEEDEEEEEELEEVED
B2: mutant 9: MNAR mutant, C-terminal portion aa 595-1131 (protein, listed as Homo sapiens)
chain: PPPLACALQAFSLGQREDSLEVSSFCSEALVTCAALTHPRVPPLQPMGPTCPTPAPVPPPEAPSPFRAPPFHPPGPMPSVGSMPSAGPMPSAGPMPSAGPVPSARPGPPTTANHLGLSVPGLVSVPPRLLPGPENHRAGSNEDPILAPSGTPPPTIPPDETFGGRVPRPAFVHYDKEEASDVEISLESDSDDSVVIVPEGLPPLPPPPPSGATPPPIAPTGPPTASPPVPAKEEPEELPAAPGPLPPPPPPPPPVPGPVTLPPPQLVPEGTPGGGGPPALEEDLTVININSSDEEEEEEEEGEEEEEEEEEEEEDFEEEEEDEEEYFEEEEEEEEEFEEEFEEEEGELEEEEEEEDEEEEEELEEVEDLEFGTAGGEVEEGAPPPPTLPPALPPPESPPKVQPEPEPEPGLLLEVEEPGTEEERGADTAPTLAPEALPSQGEVEREGESPAAGPPPQELVEEEPSAPPTLLEEEPEDGSDKVQPPPETPAEEEMETETEAEALQEKEQDDTAAMLADFIDCPPDDEKPPPPSEPDS
B3: mutant 11: MNAR mutant aa 595-887 (protein, listed as Homo sapiens)
chain: PPPLACALQAFSLGQREDSLEVSSFCSEALVTCAALTHPRVPPLQPMGPTCPTPAPVPPPEAPSPFRAPPFHPPGPMPSVGSMPSAGPMPSAGPMPSAGPVPSARPGPPTTANHLGLSVPGLVSVPPRLLPGPENHRAGSNEDPILAPSGTPPPTIPPDETFGGRVPRPAFVHYDKEEASDVEISLESDSDDSVVIVPEGLPPLPPPPPSGATPPPIAPTGPPTASPPVPAKEEPEELPAAPGPLPPPPPPPPPVPGPVTLPPPQLVPEGTPGGGGPPALEEDLTVININSSD

The subject of this experiment is ER. As to the kind of experiment: MNAR structural-functional analysis, ER-stimulated transcription in HepG2 cells. The format is cell-based. The note with it: MNAR deletion mutants transfected into HepG2 cells. The protocol:
To delineate the regions of MNAR that are responsible for interaction with estrogen receptor and c-Src tyrosine kinase, we performed functional evaluation of MNAR deletion mutants (FIG. 12). A series of C-terminal truncations of MNAR was generated using specially designed oligonucleotides, by amplifying appropriate fragments and cloning them into appropriate expression vectors. These mutants were tested for their abilities to enhance ER-stimulated transcription when transfected into HepG2 cells.
At the C-terminus, MNAR contains a region rich in both proline and glutamic acid. To delineate the regions on MNAR responsible for interaction with estrogen receptors and c-src tyrosine kinase, a functional evaluation of MNAR deletion mutants was performed (FIG. 12). A series of C-terminal truncations of MNAR was generated using specially designed oligonucleotides, by amplifying appropriate fragments and cloning them into appropriate expression vectors. These mutants were tested for their abilities to enhance ER-stimulated transcription when transfected into HepG2 cells.
As to B1, the “ability to enhance ER-stimulated transcription” value (“ability” below) was “inactive”.

Consider B2, for which the “ability” value was “inactive”.

For the molecule B3, the “ability” value was “inactive”.
